Experimental data reported in US20220143148A1, “COMPOSITIONS AND METHODS FOR MODULATING CGRP SIGNALING TO REGULATE INTESTINAL INNATE LYMPHOID CELLS” (The Broad Institute, Inc., priority 2019, published 2022).

System: small intestinal immune cells
Test: Droplet-based scRNA-seq of small intestinal immune cells (LP and PP), OVA vs PBS, clustering and differential expression
Type: in vivo, mouse
Conditions: PP; cluster ID 8
Description: To comprehensively characterize small intestinal immune cells, Applicants generated scRNA-Seq profiles for 58,067 immune cells collected from lamina propria (LP) and Peyer's patch (PP) regions at steady state and after induction of a type 2 inflammatory reaction to ovalbumin (OVA) (Brandt et al., 2003) (FIGS. 1A and 8A). To ensure sufficient representation of rare cells, Applicants combined a normalization strategy—removing by flow sorting either a portion of IgD+ naïve B cells, which are the most abundant cell type in PPs, or all CD19+ and CD3+ T cells (FIG. 8B, Methods)—with profiling of a sufficiently large number of cells number (P>0.99 to recover at least 15 cells from each cluster, Methods) by massively parallel scRNA-seq (Haber et al., 2017) (Methods). Applicants obtained 36,797 and 21,270 high quality cells passing initial filtering (Methods) from PP and LP regions, respectively.
Overall, Applicants annotated 27 cell subsets across the two compartments, spanning T cells, B cells, ILCs, dendritic cells (DCs), myeloid cells and stromal cells, in frequencies ranging from 0.07% to 14%. Briefly, Applicants first partitioned the cells from the PP regions by unsupervised clustering (Methods) into 46 clusters, retained the 97% of cells that were robustly assigned cell identities in each cluster (Methods), assigned the cells from the LP regions to the 46 clusters using a classifier (Methods), and visualized the data with scvis (Ding et al., 2018), a deep generative model-based method (FIGS. 1B and 8C, Methods). Next, Applicants identified genes that were differentially expressed between the cells in each cluster and the remaining cells (Table 1, Methods), as well as between pairs of clusters (Table 2), to elucidate identities of similar cell types/states. Applicants excluded from downstream analysis clusters mostly consisting of contaminants from epithelium, likely doublets, or cells with a small number of Unique Molecular Identifiers (UMIs) (FIGS. 1C and 8D), or lacking distinct markers (Methods). Altogether, Applicants retained 27 clusters spanning 85% of the cells and each associated with distinct marker genes (FIG. 8E, Methods).
To induce allergic reaction to OVA, 6 to 7 weeks old mice were sensitized twice, two weeks apart, with 50 μg of OVA plus 1 mg of aluminum potassium sulfate adjuvant via intraperitoneal injection. Two weeks later, mice were orally administered with 50 mg of OVA on every other day for a total of five times. 1 μg of α-CGRP peptide was administered simultaneously when indicated. Mice were deprived of food for 3-4 hours in cages with wood chip bedding for limiting antigen degradation in the stomach before each intragastric challenge.
Isolation of cells from Peyer's patches (PPs). Peyer's patches (PPs) were carefully dissected from the small intestine under a stereo microscope using a fine scissor, pierced once with a fine forcep. Tissues were digested in freshly made digestion buffer (RPMI-1640 containing 100 μg/ml Liberase™ and 50 μg/ml DNase I at 37° C. on a roto-mixer. After 15 min, tissues were very gently mixed using a 1 ml pipette. The supernatant was collected and added to ice-cold MACS buffer (pH 7.4; PBS plus 2% FCS and 2 mM EDTA). Pre-warmed (37° C.) fresh digestion buffer was added to the remaining tissues. After rotation at 37° C. for 15 min, the mixture was vigorously mixed using a 1 ml pipette for 1 min. Supernatants from the two steps were combined and passed through 70 μm filters and stained for FACS (below).
Isolation of cells from the lamina propria (LP). The small intestines were opened longitudinally and washed in ice-cold PBS. For scRNA-seq, roughly 0.5 cm of fragments from each of the distal, middle and proximal regions without visible PPs were collected. Epithelial cells were dissociated by tissue rotation in pre-warmed (37° C.) PBS containing 10 mM EDTA at 37° C. for 15 min, followed by additional incubation on ice for 15 min. Tissues were then shaken vigorously. […]

B1: OVA (protein, UniProt P01012 2-386, looked up)
Ovalbumin: GSIGAASMEFCFDVFKELKVHHANENIFYCPIAIMSALAMVYLGAKDSTRTQINKVVRFDKLPGFGDSIEAQCGTSVNVHSSLRDILNQITKPNDVYSFSLASRLYAEERYPILPEYLQCVKELYRGGLEPINFQTAADQARELINSWVESQTNGIIRNVLQPSSVDSQTAMVLVNAIVFKGLWEKAFKDEDTQAMPFRVTEQESKPVQMMYQIGLFRVASMASEKMKILELPFASGTMSMLVLLPDEVSGLEQLESIINFEKLTEWTSSNVMEERKIKVYLPRMKMEEKYNLTSVLMAMGITDVFSSSANLSGISSAESLKISQAVHAAHAEINEAGREVVGSAEAGVDAASVSEEFRADHPFLFCIKHIATNAVLFFGRCVSP
- Fosl2 percentage of expressing cells in OVA-treated group: 0.378
- Ftl1 percentage of expressing cells in OVA-treated group: 0.963
- Gadd45b percentage of expressing cells in OVA-treated group: 0.17
- Gimap1 percentage of expressing cells in OVA-treated group: 0.776
- Gimap6 percentage of expressing cells in OVA-treated group: 0.815
- Gimap9 percentage of expressing cells in OVA-treated group: 0.511
- Gnai2 percentage of expressing cells in OVA-treated group: 0.661
- Gramd1a percentage of expressing cells in OVA-treated group: 0.336
- Gramd3 percentage of expressing cells in OVA-treated group: 0.227
- Gzma percentage of expressing cells in OVA-treated group: 0.764
- H2-K1 percentage of expressing cells in OVA-treated group: 0.978
- H3f3b percentage of expressing cells in OVA-treated group: 0.993
- Hcst percentage of expressing cells in OVA-treated group: 0.898
- Hist1h1c percentage of expressing cells in OVA-treated group: 0.348
- Hist1h1e percentage of expressing cells in OVA-treated group: 0.176
- Icam1 percentage of expressing cells in OVA-treated group: 0.175
- Id2 percentage of expressing cells in OVA-treated group: 0.684
- Ier2 percentage of expressing cells in OVA-treated group: 0.781
- Ier5l percentage of expressing cells in OVA-treated group: 0.057
- Ifi203 percentage of expressing cells in OVA-treated group: 0.547
- Ifrd1 percentage of expressing cells in OVA-treated group: 0.276
- Igha percentage of expressing cells in OVA-treated group: 0.488
- Igkc percentage of expressing cells in OVA-treated group: 0.677
- Ikzf2 percentage of expressing cells in OVA-treated group: 0.216
- Il2rg percentage of expressing cells in OVA-treated group: 0.681
- Il16 percentage of expressing cells in OVA-treated group: 0.336
- Jun percentage of expressing cells in OVA-treated group: 0.453
- Jund percentage of expressing cells in OVA-treated group: 0.846
- Kdm2b percentage of expressing cells in OVA-treated group: 0.158
- Kdm6b percentage of expressing cells in OVA-treated group: 0.274
- Klf4 percentage of expressing cells in OVA-treated group: 0.122
- Klf6 percentage of expressing cells in OVA-treated group: 0.589
- Klrb1c percentage of expressing cells in OVA-treated group: 0.735
- Klrb1f percentage of expressing cells in OVA-treated group: 0.56
- Klrc1 percentage of expressing cells in OVA-treated group: 0.608
- Klrc2 percentage of expressing cells in OVA-treated group: 0.505
- Klrd1 percentage of expressing cells in OVA-treated group: 0.939
- Klre1 percentage of expressing cells in OVA-treated group: 0.744
- Klrk1 percentage of expressing cells in OVA-treated group: 0.873
- Lax1 percentage of expressing cells in OVA-treated group: 0.286
- Litaf percentage of expressing cells in OVA-treated group: 0.339
- Lmna percentage of expressing cells in OVA-treated group: 0.089
- Maff percentage of expressing cells in OVA-treated group: 0.251
- Mcpt1 percentage of expressing cells in OVA-treated group: 0.209
- Mir142hg percentage of expressing cells in OVA-treated group: 0.161
- Ms4a4b percentage of expressing cells in OVA-treated group: 0.953
- Ms4a6b percentage of expressing cells in OVA-treated group: 0.419
- Myl6 percentage of expressing cells in OVA-treated group: 0.987
- Nabp1 percentage of expressing cells in OVA-treated group: 0.702
- Ncr1 percentage of expressing cells in OVA-treated group: 0.964
- Ndel1 percentage of expressing cells in OVA-treated group: 0.216
- Neat1 percentage of expressing cells in OVA-treated group: 0.503
- Neurl3 percentage of expressing cells in OVA-treated group: 0.388
- Nfil3 percentage of expressing cells in OVA-treated group: 0.365
- Nfkb1 percentage of expressing cells in OVA-treated group: 0.374
- Nfkbia percentage of expressing cells in OVA-treated group: 0.614
- Nfkbid percentage of expressing cells in OVA-treated group: 0.146
- Nfkbie percentage of expressing cells in OVA-treated group: 0.111
- Nfkbiz percentage of expressing cells in OVA-treated group: 0.358
- Ninj1 percentage of expressing cells in OVA-treated group: 0.125
- Nkg7 percentage of expressing cells in OVA-treated group: 0.985
- Nr4a1 percentage of expressing cells in OVA-treated group: 0.561
- Nr4a2 percentage of expressing cells in OVA-treated group: 0.348
- Nr4a3 percentage of expressing cells in OVA-treated group: 0.157
- Odc1 percentage of expressing cells in OVA-treated group: 0.202
- P2ry10 percentage of expressing cells in OVA-treated group: 0.374
- Phlda1 percentage of expressing cells in OVA-treated group: 0.134
- Pim1 percentage of expressing cells in OVA-treated group: 0.677
- Pnrc1 percentage of expressing cells in OVA-treated group: 0.769
- Ppp1r15a percentage of expressing cells in OVA-treated group: 0.406
- Ppp1r16b percentage of expressing cells in OVA-treated group: 0.206
- Ppp3cc percentage of expressing cells in OVA-treated group: 0.268
- Prr7 percentage of expressing cells in OVA-treated group: 0.093
- Ptp4a2 percentage of expressing cells in OVA-treated group: 0.606
- Ptprcap percentage of expressing cells in OVA-treated group: 0.929
